Paper PMC9019020, “Low complexity RGG-motif sequence is required for Processing body (P-body) disassembly” (Nature Communications, 2022)

Target: T1, His-Edc3-mCherry (S. cerevisiae, UniProt P39998 1-551)
T1 construct: Edc3, P-body protein of S. cerevisiae with Lsm, FDF and YjeF-N domains; full length; also called full-length Edc3; purified Edc3; source: E. coli BL21, purified (Ni-NTA agarose, batch; RNase A added during purification); not shown: His, N-terminal, kept; mCherry, C-terminal, kept
T1 sequence (looked up): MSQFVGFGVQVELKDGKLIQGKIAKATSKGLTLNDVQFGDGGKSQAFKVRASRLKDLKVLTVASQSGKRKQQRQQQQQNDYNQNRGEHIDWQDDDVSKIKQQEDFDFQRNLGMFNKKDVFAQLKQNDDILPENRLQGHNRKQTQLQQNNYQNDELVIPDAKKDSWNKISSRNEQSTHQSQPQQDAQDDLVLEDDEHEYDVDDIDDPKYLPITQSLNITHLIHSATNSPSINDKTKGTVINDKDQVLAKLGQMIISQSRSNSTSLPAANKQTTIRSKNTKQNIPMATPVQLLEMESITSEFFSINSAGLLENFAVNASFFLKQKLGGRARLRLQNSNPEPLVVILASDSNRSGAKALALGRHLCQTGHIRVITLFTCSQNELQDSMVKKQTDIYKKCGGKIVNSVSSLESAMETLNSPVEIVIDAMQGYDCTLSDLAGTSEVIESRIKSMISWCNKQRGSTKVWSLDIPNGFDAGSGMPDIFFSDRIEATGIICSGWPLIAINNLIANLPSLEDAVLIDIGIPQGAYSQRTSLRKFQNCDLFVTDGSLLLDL
Assay: pull-down; RFP magnetic agarose beads (Chromotek) capture Edc3-mCherry; 100 pmol of each purified protein; 4 °C, 2 h; 50 mM HEPES pH 7, 100 mM NaCl, 1 mM DTT, 2 mM MnCl2, 2 mM MgCl2, 1% Triton-X100, 10% glycerol, 0.25 mg/mL RNase A; western blot
Settings: both partners purified

binding result: binds
B1: His-Sbp1-FLAG (natural protein, S. cerevisiae, UniProt P10080 1-294, looked up)
chain: MSAEIEEATNAVNNLSINDSEQQPRAPTHKTVIDPEDTIFIGNVAHECTEDDLKQLFVEEFGDEVSVEIPIKEHTDGHIPASKHALVKFPTKIDFDNIKENYDTKVVKDREIHIKRARTPGQMQRGGFRGRGGFRGRGGFRGGFRGGYRGGFRGRGNFRGRGGARGGFNGQKREKIPLDQMERSKDTLYINNVPFKATKEEVAEFFGTDADSISLPMRKMRDQHTGRIFTSDSANRGMAFVTFSGENVDIEAKAEEFKGKVFGDRELTVDVAVIRPENDEEEIEQETGSEEKQE
notes: Sbp1, RGG-motif containing translation repressor of S. cerevisiae; wild type; also called wild-type Sbp1; purified Sbp1; source: E. coli BL21, purified (Ni-NTA agarose, batch; RNase A added during purification); not shown: His, N-terminal, kept; FLAG, C-terminal, kept
